In article PMC8607881 (Nature, 2021):

B1: Fab1 (Fab, V domains shown)
VH: EVQLVESGGGLVQPGGSLRLSCAASGFNLYSSSIHWVRQAPGKGLEWVASIYSYYGSTSYADSVKGRFTISADTSKNTAYLQMNSLRAEDTAVYYCARYEGWWWANTYALDYWGQGTLVTVSS
VL: DIQMTQSPSSLSASVGDRVTITCRASQSVSSAVAWYQQKPGKAPKLLIYSASSLYSGVPSRFSGSRSGTDFTLTISSLQPEDFATYYCQQYYEWLSLFTFGQGTKVEIK
B2: Fab6 (Fab, V domains shown)
VH: EVQLVESGGGLVQPGGSLRLSCAASGFNFSSYSIHWVRQAPGKGLEWVAYISSYYGSTYYADSVKGRFTISADTSKNTAYLQMNSLRAEDTAVYYCARHEYGWWNDRWGLDYWGQGTLVTVSS
VL: DIQMTQSPSSLSASVGDRVTITCRASQSVSSAVAWYQQKPGKAPKLLIYSASSLYSGVPSRFSGSRSGTDFTLTISSLQPEDFATYYCQQSSWYGPFTFGQGTKVEIK
B3: C-terminally truncated bovine GRK1 (residues 1-535) with C-terminal His6 (enzyme, UniProt P28327 1-535, looked up)
chain: MDFGSLETVVANSAFIAARGSFDASSGPASRDRKYLARLKLPPLSKCEALRESLDLGFEGMCLEQPIGKRLFQQFLRTHEQHGPALQLWKDIEDYDTADDALRPQKAQALRAAYLEPQAQLFCSFLDAETVARARAGAGDGLFQPLLRAVLAHLGQAPFQEFLDSLYFLRFLQWKWLEAQPMGEDWFLDFRVLGRGGFGEVFACQMKATGKLYACKKLNKKRLKKRKGYQGAMVEKKILAKVHSRFIVSLAYAFETKTDLCLVMTIMNGGDIRYHIYNVDEDNPGFQEPRAIFYTAQIVSGLEHLHQRNIIYRDLKPENVLLDDDGNVRISDLGLAVELKAGQTKTKGYAGTPGFMAPELLLGEEYDFSVDYFALGVTLYEMIAARGPFRARGEKVENKELKQRVLEQAVTYPDKFSPASKDFCEALLQKDPEKRLGFRDGSCDGLRTHPLFRDISWRQLEAGMLTPPFVPDSRTVYAKNIQDVGAFSTVKGVAFEKADTEFFQEFASGTCPIPWQEEMIETGVFGDLNVWRPDG
B4: hyper-phosphorylated rhodopsin (light activated) (receptor, bovine, UniProt P02699 1-348, looked up)
chain: MNGTEGPNFYVPFSNKTGVVRSPFEAPQYYLAEPWQFSMLAAYMFLLIMLGFPINFLTLYVTVQHKKLRTPLNYILLNLAVADLFMVFGGFTTTLYTSLHGYFVFGPTGCNLEGFFATLGGEIALWSLVVLAIERYVVVCKPMSNFRFGENHAIMGVAFTWVMALACAAPPLVGWSRYIPEGMQCSCGIDYYTPHEETNNESFVIYMFVVHFIIPLIVIFFCYGQLVFTVKEAAAQQQESATTQKAEKEVTRMVIIMVIAFLICWLPYAGVAFYIFTHQGSDFGPIFMTIPAFFAKTSAVYNPVIYIMMNKQFRNCMVTTLCCGKNPLGDDEASTTVSKTETSQVAPA
modifications: 6–8 phosphates incorporated per rhodopsin (7 possible sites in the cytoplasmic tail)
B5: light activated rhodopsin (Rho*) (receptor, bovine, UniProt P02699 1-348, looked up)
chain: B4 chain
modifications: all-trans retinal (Meta II state)

What was measured:
[1] = molecular target: biotinylated Avi-tagged GRK1 (residues 1-535, His6-Avi), Sgv-bound (Bos taurus (Bovine)., UniProt P28327, biotin on the Avi-tag); assay: ELISA
[2] = molecular target: B5; assay: cross-linking
[3] = molecular target: B3; assay: cross-linking

Kd [1] | binding result [3] | Binder | also measured
~2.5 nM | – | B1 | –
~2.5 nM | – | B2 | –
– | – | B3 | stoichiometry N [2]: 1
– | binds | B4 | –
– | binds | B5 | –
